Data published in patent publication US20040077046.

B1: C-terminally flag epitope-tagged HDAC3 (protein)
chain: MAKTVAYFYDPDVGNFHYGAGHPMKPHRLALTHSLVLHYGLYKKMIVFKPYQASQHDMCRFHSEDYIDFLQRVSPTNMQGFTKSLNAFNVGDDCPVFPGLFEFCSRYTGASLQGATQLNNKICDIAINWAGGLHHAKKFEASGFCYVNDIVIGILELLKYHPRVLYIDIDIHHGDGVQEAFYLTDRVMTVSFHKYGNYFFPGTGDMYEVGAESGRYYCLNVPLRDGIDDQSYKHLFQPVINQVVDFYQPTCIVLQCGADSLGCDRLGCFNLSIRGHGECVEYVKSFNIPLLVLGGGGYTVRNVARCWTYETSLLVEEAISEELPYSEYFEYFAPDFTLHPDVSTRIENQNSRQYLDQIRQTIFENLKMLNHAPSVQIHDVPADLLTYDRTDEADAEERGPEENYSRPEAPNEFYDGDHDNDKESDVEI
B2: C-terminally flag epitope-tagged HDAC4 (protein)
chain: MSSQSHPDGLSGRDQPVELLNPARVNHMPSTVDVATALPLQVAPSAVPMDLRLDHQFSLPVAEPALREQQLQQELLALKQKQQIQRQILIAEFQRQHEQLSRQHEAQLHEHIKQQQEMLAMKHQQELLEHQRKLERHRQEQELEKQHREQKLQQLKNKEKGKESAVASTEVKMKLQEFVLNKKKALAHRNLNHCISSDPRYWYGKTQHSSLDQSSPPQSGVSTSYNHPVLGMYDAKDDFPLRKTASEPNLKLRSRLKQKVAERRSSPLLRRKDGPVVTALKKRPLDVTDSACSSAPGSGPSSPNNSSGSVSAENGIAPAVPSIPAETSLAHRLVAREGSAAPLPLYTSPSLPNITLGLPATGPSAGTAGQQDAERLTLPALQQRLSLFPGTHLTPYLSTSPLERDGGAAHSPLLQHMVLLEQPPAQAPLVTGLGALPLHAQSLVGADRVSPSIHKLRQHRPLGRTQSAPLPQNAQALQHLVIQQQHQQFLEKHKQQFQQQQLQMNKIIPKPSEPARQPESHPEETEEELREHQALLDEPYLDRLPGQKEAHAQAGVQVKQEPIESDEEEAEPPREVEPGQRQPSEQELLFRQQALLLEQQRIHQLRNYQASMEAAGIPVSFGGHRPLSRAQSSPASATFPVSVQEPPTKPRFTTGLVYDTLMLKHQCTCGSSSSHPEHAGRIQSIWSRLQETGLRGKCECIRGRKATLEELQTVHSEAHTLLYGTNPLNRQKLDSKKLLGSLASVFVRLPCGGVGVDSDTIWNEVHSAGAARLAVGCVVELVFKVATGELKNGFAVVRPPGHHAEESTPMGFCYFNSVAVAAKLLQQRLSVSKILIVDWDVHHGNGTQQAFYSDPSVLYMSLHRYDDGNFFPGSGAPDEVGTGPGVGFNVNMAFTGGLDPPMGDAEYLAAFRTVVMPIASEFAPDVVLVSSGFDAVEGHPTPLGGYNLSARCFGYLTKQLMGLAGGRIVLALEGGHDLTAICDASEACVSALLGNELDPLPEKVLQQRPNANAVRSMEKVMEIHSKYWRCLQRTTSTAGRSLIEAQTCENEEAETVTAMASLSVGVKPAEKRPDEEPMEEEPPL

Target: 3H-acetylated histone H4 peptide ([3H]-Ac(H41-24))

| Protein | in vitro histone deacetylase assay (release of 3H-acetate from the peptide by immunoprecipitated enzyme) |
| --- | --- |
| B1 | HDAC9 could deacetylate the histone peptide substrate at a level that was equivalent to UDAC3 and HDAC4 |
| B2 | HDAC9 could deacetylate the histone peptide substrate at a level that was equivalent to UDAC3 and HDAC4 |
